Laboratory results as given in paper PMC9352680, “A comprehensive thermodynamic model for RNA binding by the Saccharomyces cerevisiae Pumilio protein PUF4”.

T1: PUF4 RNA-binding domain (Saccharomyces cerevisiae, UniProt P25339 537-888)
T1 sequence: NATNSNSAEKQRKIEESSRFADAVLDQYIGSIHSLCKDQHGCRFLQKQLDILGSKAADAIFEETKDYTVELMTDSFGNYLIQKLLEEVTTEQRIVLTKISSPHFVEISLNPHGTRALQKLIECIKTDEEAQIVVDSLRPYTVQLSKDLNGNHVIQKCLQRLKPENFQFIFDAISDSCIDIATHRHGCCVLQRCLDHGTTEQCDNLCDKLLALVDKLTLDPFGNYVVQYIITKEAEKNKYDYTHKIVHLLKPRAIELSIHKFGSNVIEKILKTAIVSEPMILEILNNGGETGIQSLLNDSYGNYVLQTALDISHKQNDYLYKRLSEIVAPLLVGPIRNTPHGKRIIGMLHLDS


What follows are binders tested against T1, PUF4 RNA-binding domain (assay: Mg; RNA-MaP; 20 mM Na-HEPES pH 7.4, 30 mM KOAc, 0.75 mM MgCl2, 0.1% Tween-20, 5% glycerol, 0.1 mg/mL BSA, 2 mM DTT; 25 C; 0.0125-409.6 nM protein). Details: tags: N-His6-TEV cleaved; C-SNAP kept, Cy3B-labelled; label: tethered on chip by stalled RNA polymerase.

| Binder | Kd |
| --- | --- |
| UCUCUUUAUAUUAUUGUCUCUU (ssRNA) [Ib_S1_P5E.1_K5.1_C5.1_H5.1_[G2A]_A5.1_F5.1_[A10G]_T5.1] | 242 nM |
| Id_ii_S2_P4E.2_K4.1_C4.2_[C-2A]_[T-1A]_H4.1_A4.1_F4.1_T4.2_[G10T]_[T11C] (ssRNA) RNA: UUUGAUUAAUAUGAUAUCGUUCUUUCUAAUGUAUAUUAUCUUCUUUCUCGAUAUCAUAUUAAUCUUU | 1.1 nM |
| Id_ii_S2_P4E.2_K4.1_C4.2_[C-2A]_H4.1_A4.1_F4.1_T4.2_[G10C] (ssRNA) RNA: UUUGAUUAAUAUGAUAUCGUUCUUUCUAUUGUAUAUUACUUUCUUUCUCGAUAUCAUAUUAAUCUUU | 1.11 nM |
| Id_ii_S2_P4E.2_K4.1_C4.2_[T-1G]_H4.1_A4.1_F4.1_T4.2_[G10A] (ssRNA) RNA: UUUGAUUAAUAUGAUAUCGUUCUUUCUCGUGUAUAUUAAUUUCUUUCUCGAUAUCAUAUUAAUCUUU | 0.316 nM |
| Id_ii_S2_P4E.3_K4.2_C4.2_[C-2G]_[T-1C]_H4.2_A4.1_F4.1_T4.2_[G10C]_[T11G] (ssRNA) RNA: UUUGAUUAAUAUGAUAUCGUUCUUUCUGCUAUAUAUUACGUUCUUUCUCGAUAUCAUAUUAAUCUUU | 37.1 nM |
| Id_ii_S2_P4E.2_K4.1_C4.2_[C-2A]_[T-1A]_H4.1_A4.1_F4.1_T4.2_[G10A]_[T11G] (ssRNA) RNA: UUUGAUUAAUAUGAUAUCGUUCUUUCUAAUGUAUAUUAAGUUCUUUCUCGAUAUCAUAUUAAUCUUU | 8.86 nM |
| Id_ii_S2_P4E.2_K4.1_C4.2_[C-2A]_H4.1_A4.1_F4.1_T4.2_[G10T]_[T11G] (ssRNA) RNA: UUUGAUUAAUAUGAUAUCGUUCUUUCUAUUGUAUAUUAUGUUCUUUCUCGAUAUCAUAUUAAUCUUU | 0.705 nM |
| Id_ii_S2_P4E.2_K4.1_C4.2_[T-1G]_H4.1_A4.1_F4.1_T4.2_[G10A]_[T11A] (ssRNA) RNA: UUUGAUUAAUAUGAUAUCGUUCUUUCUCGUGUAUAUUAAAUUCUUUCUCGAUAUCAUAUUAAUCUUU | 0.489 nM |
| Id_ii_S2_P4E.2_K4.1_C4.2_[T-1C]_H4.1_A4.1_F4.1_T4.2_[G10C] (ssRNA) RNA: UUUGAUUAAUAUGAUAUCGUUCUUUCUCCUGUAUAUUACUUUCUUUCUCGAUAUCAUAUUAAUCUUU | 0.482 nM |
| Id_ii_S2_P4E.2_K4.1_C4.2_[T-1C]_H4.1_A4.1_F4.1_T4.2_[G10A]_[T11G] (ssRNA) RNA: UUUGAUUAAUAUGAUAUCGUUCUUUCUCCUGUAUAUUAAGUUCUUUCUCGAUAUCAUAUUAAUCUUU | 1.63 nM |
| Id_ii_S2_P4E.2_K4.1_C4.2_H4.1_A4.1_F4.1_T4.2_[G10C]_[T11C] (ssRNA) RNA: UUUGAUUAAUAUGAUAUCGUUCUUUCUCUUGUAUAUUACCUUCUUUCUCGAUAUCAUAUUAAUCUUU | 0.362 nM |
| Id_ii_S2_P4E.2_K4.1_C4.2_[T-1A]_H4.1_A4.1_F4.1_T4.2_[G10A]_[T11G] (ssRNA) RNA: UUUGAUUAAUAUGAUAUCGUUCUUUCUCAUGUAUAUUAAGUUCUUUCUCGAUAUCAUAUUAAUCUUU | 2.6 nM |
| Id_ii_S2_P4E.2_K4.1_C4.2_[T-1A]_H4.1_A4.1_F4.1_T4.2_[G10A]_[T11A] (ssRNA) RNA: UUUGAUUAAUAUGAUAUCGUUCUUUCUCAUGUAUAUUAAAUUCUUUCUCGAUAUCAUAUUAAUCUUU | 0.937 nM |
| Id_ii_S2_P4E.2_K4.1_C4.2_[T-1A]_H4.1_A4.1_F4.1_T4.2_[G10C] (ssRNA) RNA: UUUGAUUAAUAUGAUAUCGUUCUUUCUCAUGUAUAUUACUUUCUUUCUCGAUAUCAUAUUAAUCUUU | 0.716 nM |
| Id_ii_S2_P4E.2_K4.1_C4.2_H4.1_A4.1_F4.1_T4.2_[G10A]_[T11C] (ssRNA) RNA: UUUGAUUAAUAUGAUAUCGUUCUUUCUCUUGUAUAUUAACUUCUUUCUCGAUAUCAUAUUAAUCUUU | 0.566 nM |
| Id_ii_S2_P4E.3_K4.2_C4.2_[C-2G]_[T-1G]_H4.2_A4.1_F4.1_T4.2_[G10A] (ssRNA) RNA: UUUGAUUAAUAUGAUAUCGUUCUUUCUGGUAUAUAUUAAUUUCUUUCUCGAUAUCAUAUUAAUCUUU | 57 nM |
| Id_ii_S2_P4E.2_K4.1_C4.2_[T-1C]_H4.1_A4.1_F4.1_T4.2_[G10T] (ssRNA) RNA: UUUGAUUAAUAUGAUAUCGUUCUUUCUCCUGUAUAUUAUUUUCUUUCUCGAUAUCAUAUUAAUCUUU | 0.15 nM |
| Ie_S2_P3E.2_K3.1_C3.2_H3.1_A3.1_F3.1_[+7T]_T3.2 (ssRNA) RNA: UUUGAUUAAUAUGAUAUCGUUCUUUCUCUUGUAUAUUAUAUUCUUUCUCGAUAUCAUAUUAAUCUUU | 0.308 nM |
| Id_ii_S2_P4E.2_K4.1_C4.2_[C-2A]_[T-1A]_H4.1_A4.1_F4.1_T4.2_[G10A]_[T11C] (ssRNA) RNA: UUUGAUUAAUAUGAUAUCGUUCUUUCUAAUGUAUAUUAACUUCUUUCUCGAUAUCAUAUUAAUCUUU | 1.96 nM |
| Id_ii_S2_P4E.2_K4.1_C4.2_[T-1C]_H4.1_A4.1_F4.1_T4.2 (ssRNA) RNA: UUUGAUUAAUAUGAUAUCGUUCUUUCUCCUGUAUAUUAGUUUCUUUCUCGAUAUCAUAUUAAUCUUU | 0.166 nM |
| Id_ii_S2_P4E.2_K4.1_C4.2_[C-2A]_H4.1_A4.1_F4.1_T4.2_[G10A]_[T11A] (ssRNA) RNA: UUUGAUUAAUAUGAUAUCGUUCUUUCUAUUGUAUAUUAAAUUCUUUCUCGAUAUCAUAUUAAUCUUU | 0.939 nM |

| Binder | Kd |
| --- | --- |
| Id_ii_S2_P4E.2_K4.1_C4.2_[T-1G]_H4.1_A4.1_F4.1_T4.2 (ssRNA) RNA: UUUGAUUAAUAUGAUAUCGUUCUUUCUCGUGUAUAUUAGUUUCUUUCUCGAUAUCAUAUUAAUCUUU | 0.296 nM |
| Id_ii_S2_P4E.3_K4.2_C4.2_[C-2G]_[T-1C]_H4.2_A4.1_F4.1_T4.2_[G10C]_[T11C] (ssRNA) RNA: UUUGAUUAAUAUGAUAUCGUUCUUUCUGCUAUAUAUUACCUUCUUUCUCGAUAUCAUAUUAAUCUUU | 23.6 nM |
| Id_ii_S2_P4E.2_K4.1_C4.2_[T-1C]_H4.1_A4.1_F4.1_T4.2_[G10T]_[T11A] (ssRNA) RNA: UUUGAUUAAUAUGAUAUCGUUCUUUCUCCUGUAUAUUAUAUUCUUUCUCGAUAUCAUAUUAAUCUUU | 0.342 nM |
| Id_ii_S2_P4E.2_K4.1_C4.2_[C-2A]_[T-1A]_H4.1_A4.1_F4.1_T4.2_[G10A]_[T11A] (ssRNA) RNA: UUUGAUUAAUAUGAUAUCGUUCUUUCUAAUGUAUAUUAAAUUCUUUCUCGAUAUCAUAUUAAUCUUU | 3.89 nM |
| Id_ii_S2_P4E.2_K4.1_C4.2_[T-1A]_H4.1_A4.1_F4.1_T4.2 (ssRNA) RNA: UUUGAUUAAUAUGAUAUCGUUCUUUCUCAUGUAUAUUAGUUUCUUUCUCGAUAUCAUAUUAAUCUUU | 0.425 nM |
| Id_ii_S2_P4E.2_K4.1_C4.2_[T-1A]_H4.1_A4.1_F4.1_T4.2_[G10C]_[T11C] (ssRNA) RNA: UUUGAUUAAUAUGAUAUCGUUCUUUCUCAUGUAUAUUACCUUCUUUCUCGAUAUCAUAUUAAUCUUU | 0.746 nM |
| Id_ii_S2_P4E.2_K4.1_C4.2_[T-1G]_H4.1_A4.1_F4.1_T4.2_[G10A]_[T11G] (ssRNA) RNA: UUUGAUUAAUAUGAUAUCGUUCUUUCUCGUGUAUAUUAAGUUCUUUCUCGAUAUCAUAUUAAUCUUU | 1.7 nM |
| Id_ii_S2_P4E.2_K4.1_C4.2_[T-1G]_H4.1_A4.1_F4.1_T4.2_[G10T] (ssRNA) RNA: UUUGAUUAAUAUGAUAUCGUUCUUUCUCGUGUAUAUUAUUUUCUUUCUCGAUAUCAUAUUAAUCUUU | 0.195 nM |
| Id_ii_S2_P4E.2_K4.1_C4.2_[C-2A]_H4.1_A4.1_F4.1_T4.2_[G10A] (ssRNA) RNA: UUUGAUUAAUAUGAUAUCGUUCUUUCUAUUGUAUAUUAAUUUCUUUCUCGAUAUCAUAUUAAUCUUU | 0.782 nM |
| Id_ii_S2_P4E.2_K4.1_C4.2_H4.1_A4.1_F4.1_T4.2_[G10A]_[T11A] (ssRNA) RNA: UUUGAUUAAUAUGAUAUCGUUCUUUCUCUUGUAUAUUAAAUUCUUUCUCGAUAUCAUAUUAAUCUUU | 0.537 nM |
| Id_ii_S2_P4E.2_K4.1_C4.2_[T-1C]_H4.1_A4.1_F4.1_T4.2_[G10A]_[T11A] (ssRNA) RNA: UUUGAUUAAUAUGAUAUCGUUCUUUCUCCUGUAUAUUAAAUUCUUUCUCGAUAUCAUAUUAAUCUUU | 0.324 nM |
| Id_ii_S2_P4E.2_K4.1_C4.2_[C-2A]_[T-1A]_H4.1_A4.1_F4.1_T4.2_[G10A] (ssRNA) RNA: UUUGAUUAAUAUGAUAUCGUUCUUUCUAAUGUAUAUUAAUUUCUUUCUCGAUAUCAUAUUAAUCUUU | 1.93 nM |
| Id_ii_S2_P4E.2_K4.1_C4.2_[C-2A]_H4.1_A4.1_F4.1_T4.2_[G10T]_[T11C] (ssRNA) RNA: UUUGAUUAAUAUGAUAUCGUUCUUUCUAUUGUAUAUUAUCUUCUUUCUCGAUAUCAUAUUAAUCUUU | 0.401 nM |
| Id_ii_S2_P4E.2_K4.1_C4.2_[T-1A]_H4.1_A4.1_F4.1_T4.2_[G10A] (ssRNA) RNA: UUUGAUUAAUAUGAUAUCGUUCUUUCUCAUGUAUAUUAAUUUCUUUCUCGAUAUCAUAUUAAUCUUU | 0.506 nM |
| Id_ii_S2_P4E.2_K4.1_C4.2_H4.1_A4.1_F4.1_T4.2_[G10C] (ssRNA) RNA: UUUGAUUAAUAUGAUAUCGUUCUUUCUCUUGUAUAUUACUUUCUUUCUCGAUAUCAUAUUAAUCUUU | 0.572 nM |
| Id_ii_S2_P4E.2_K4.1_C4.2_H4.1_A4.1_F4.1_T4.2_[G10A] (ssRNA) RNA: UUUGAUUAAUAUGAUAUCGUUCUUUCUCUUGUAUAUUAAUUUCUUUCUCGAUAUCAUAUUAAUCUUU | 0.317 nM |
| Id_ii_S2_P4E.2_K4.1_C4.2_[T-1G]_H4.1_A4.1_F4.1_T4.2_[G10T]_[T11C] (ssRNA) RNA: UUUGAUUAAUAUGAUAUCGUUCUUUCUCGUGUAUAUUAUCUUCUUUCUCGAUAUCAUAUUAAUCUUU | 0.286 nM |
| Id_ii_S2_P4E.2_K4.1_C4.2_H4.1_A4.1_F4.1_T4.2_[T11C] (ssRNA) RNA: UUUGAUUAAUAUGAUAUCGUUCUUUCUCUUGUAUAUUAGCUUCUUUCUCGAUAUCAUAUUAAUCUUU | 0.275 nM |
| UCUCUUUCUAUUAUUGUCUCUU (ssRNA) [Ib_S1_P5E.1_K5.1_C5.1_H5.1_[G2C]_A5.1_F5.1_[A10G]_T5.1] | > 2300 nM |
| UCUCUUCGUAUUAUUCUCUCUU (ssRNA) [Ib_S1_P5E.1_K5.1_C5.1_H5.1_[T1C]_A5.1_F5.1_[A10C]_T5.1] | > 2300 nM |
| UCUCUUAGUAUUAUUUUCUCUU (ssRNA) [Ib_S1_P5E.1_K5.1_C5.1_H5.1_[T1A]_A5.1_F5.1_[A10T]_T5.1] | > 2300 nM |
